In patent publication US20220177587A1, “METHODS AND USES OF VARIANT CD80 FUSION PROTEINS AND RELATED CONSTRUCTS” (Alpine Immune Sciences, Inc., priority 2018, published 2022):
Where two headings read alike, the source gives them in different places.

Assays:
PD-L1 (human) [1] = target: PD-L1 (human) (UniProt Q9NZQ7); assay: flow cytometry, HEK293 cells transfected with full-length human PD-L1, PE anti-human Fc
Target sequence in this assay (Q9NZQ7 19-290): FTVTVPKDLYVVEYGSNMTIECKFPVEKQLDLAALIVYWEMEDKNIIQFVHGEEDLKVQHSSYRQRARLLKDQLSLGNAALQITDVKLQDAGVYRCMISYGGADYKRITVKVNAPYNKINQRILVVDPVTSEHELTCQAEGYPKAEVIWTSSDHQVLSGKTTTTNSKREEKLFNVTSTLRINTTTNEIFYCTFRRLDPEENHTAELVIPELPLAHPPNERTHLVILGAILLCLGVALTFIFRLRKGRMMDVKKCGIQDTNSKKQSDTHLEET

CD28 (human) [2] = target: CD28 (human) (UniProt P10747)
PD-L1 (human) [3] = target: PD-L1 (human) (UniProt Q9NZQ7)
Target sequence in this assay (Q9NZQ7 19-290): as above

PD-L1 (human) [4] = target: PD-L1 (human) (UniProt Q9NZQ7); assay: flow cytometry, CHO cells expressing huPD-L1
Target sequence in this assay (Q9NZQ7 19-290): as above

human CTLA-4 (human) [5] = target: human CTLA-4 (human) (UniProt P16410); assay: flow cytometry, CHO cells expressing huCTLA-4
Target sequence in this assay (P16410 36-223): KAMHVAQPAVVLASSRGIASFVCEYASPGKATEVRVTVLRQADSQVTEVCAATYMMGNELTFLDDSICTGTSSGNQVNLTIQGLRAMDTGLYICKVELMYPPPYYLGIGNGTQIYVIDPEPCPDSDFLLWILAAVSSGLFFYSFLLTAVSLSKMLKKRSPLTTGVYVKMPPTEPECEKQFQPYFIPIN

CD28 (human) [6] = target: CD28 (human) (UniProt P10747); assay: flow cytometry, Jurkat/IL2 reporter cells (CD28)
PD-L1 (human) [7] = target: PD-L1 (human) (UniProt Q9NZQ7); assay: flow cytometry, CHO/huPD-L1 cells; vs WT CD80 ECD-Fc (Abcam)
Target sequence in this assay (Q9NZQ7 19-290): as the sequence (Q9NZQ7 19-290) above

human CTLA-4 (human) [8] = target: human CTLA-4 (human) (UniProt P16410); assay: flow cytometry, CHO/huCTLA-4 cells; vs WT CD80 ECD-Fc (Abcam)
Target sequence in this assay (P16410 36-223): as the sequence (P16410 36-223) above

[9] = target: human PD-L1 (huPD-L1), on stably transduced CHO cells (human) (UniProt Q9NZQ7); assay: flow cytometry; ratio of MFI on CHO/huPD-L1 cells to MFI on Jurkat (CD28) cells
[10] = target: human CTLA-4 (huCTLA4), on stably transduced CHO cells (human) (UniProt P16410); assay: flow cytometry on CHO/huCTLA4 cells; MFI relative to WT CD80 (CD80 WT IgV-Fc = 1.0)
[11] = target: human PD-L1 (huPD-L1), on stably transduced CHO cells (human) (UniProt Q9NZQ7); assay: flow cytometry on CHO/huPD-L1 cells; MFI relative to WT CD80 (CD80 WT IgV-Fc = 1.0)
[12] = target: CD28, endogenously expressed on Jurkat/IL2 reporter cells (human) (UniProt P10747); assay: flow cytometry on Jurkat (CD28) cells; MFI relative to WT CD80 (CD80 WT IgV-Fc = 1.0)
[13] = target: human CTLA-4 (huCTLA4), on stably transduced CHO cells (human) (UniProt P16410); assay: flow cytometry on CHO cells stably expressing huCTLA4, 33.3 nM Fc fusion, PE anti-human Fc
[14] = target: human PD-L1 (huPD-L1), on stably transduced CHO cells (human) (UniProt Q9NZQ7); assay: flow cytometry on CHO cells stably expressing huPD-L1, 33.3 nM Fc fusion, PE anti-human Fc
[15] = target: CD28, endogenously expressed on Jurkat/IL2 reporter cells (human) (UniProt P10747); assay: flow cytometry on Jurkat/IL2 reporter cells (endogenous CD28), 33.3 nM Fc fusion, PE anti-human Fc
CD28 (human) [16] = target: CD28 (human) (UniProt P10747); remark: listed apart in the source
PD-L1 (human) [17] = target: PD-L1 (human) (UniProt Q9NZQ7); remark: listed apart in the source
Target sequence in this assay (Q9NZQ7 19-290): as the sequence (Q9NZQ7 19-290) above

CD28 (human) [18] = target: CD28 (human) (UniProt P10747); remark: listed apart in the source
PD-L1 (human) [19] = target: PD-L1 (human) (UniProt Q9NZQ7); remark: listed apart in the source
Target sequence in this assay (Q9NZQ7 19-290): as above

CD28 (human) [20] = target: CD28 (human) (UniProt P10747); remark: listed apart in the source
PD-L1 (human) [21] = target: PD-L1 (human) (UniProt Q9NZQ7); remark: listed apart in the source
CD28 (human) [22] = target: CD28 (human) (UniProt P10747); remark: listed apart in the source
PD-L1 (human) [23] = target: PD-L1 (human) (UniProt Q9NZQ7); remark: listed apart in the source
CD28 (human) [24] = target: CD28 (human) (UniProt P10747); assay: flow cytometry, HEK293 cells transfected with full-length human CD28, PE anti-human Fc
human CTLA-4 (human) [25] = target: human CTLA-4 (human) (UniProt P16410); assay: flow cytometry, HEK293 cells transfected with full-length human CTLA-4, PE anti-human Fc
Target sequence in this assay (P16410 36-223): as the sequence (P16410 36-223) above

CD28 (human) [26] = target: CD28 (human) (UniProt P10747); assay: flow cytometry, Jurkat cells (CD28)
CD28 (human) [27] = target: CD28 (human) (UniProt P10747); assay: flow cytometry, Jurkat cells (CD28); remark: listed apart in the source
PD-L1 (human) [28] = target: PD-L1 (human) (UniProt Q9NZQ7); assay: flow cytometry, CHO cells expressing PD-L1
PD-L1 (human) [29] = target: PD-L1 (human) (UniProt Q9NZQ7); assay: flow cytometry, CHO cells stably expressing PD-L1
CD28 (human) [30] = target: CD28 (human) (UniProt P10747); assay: flow cytometry, HEK293 cells transfected with human CD28
CD28 (human) [31] = target: CD28 (human) (UniProt P10747); assay: flow cytometry, HEK293 cells transfected with human CD28; negative control
PD-L1 (human) [32] = target: PD-L1 (human) (UniProt Q9NZQ7); assay: flow cytometry, HEK293 cells transfected with human PD-L1; negative control
human CTLA-4 (human) [33] = target: human CTLA-4 (human) (UniProt P16410); assay: flow cytometry, HEK293 cells transfected with human CTLA-4; negative control
Target sequence in this assay (P16410 36-223): as above

CD28 (human) [34] = target: CD28 (human) (UniProt P10747); remark: listed apart in the source
PD-L1 (human) [35] = target: PD-L1 (human) (UniProt Q9NZQ7); remark: listed apart in the source
human CTLA-4 (human) [36] = target: human CTLA-4 (human) (UniProt P16410); assay: flow cytometry, CHO cells stably expressing CTLA4
PD-L1 (human) [37] = target: PD-L1 (human) (UniProt Q9NZQ7); assay: flow cytometry, CHO cells stably expressing PD-L1; remark: listed apart in the source
human CTLA-4 (human) [38] = target: human CTLA-4 (human) (UniProt P16410); assay: flow cytometry, CHO/CTLA4 cells; MFI over CD80 WT IgV-Fc
Target sequence in this assay (P16410 36-223): as above

PD-L1 (human) [39] = target: PD-L1 (human) (UniProt Q9NZQ7); assay: flow cytometry, CHO/PD-L1 cells; MFI over CD80 WT IgV-Fc
CD28 (human) [40] = target: CD28 (human) (UniProt P10747); assay: flow cytometry, Jurkat cells (CD28); MFI over CD80 WT IgV-Fc
CD28 (human) [41] = target: CD28 (human) (UniProt P10747); remark: listed apart in the source

human PD-L1 (huPD-L1), on stably transduced CHO cells (human), sequence (Q9NZQ7 19-290): as the sequence (Q9NZQ7 19-290) above
human CTLA-4 (huCTLA4), on stably transduced CHO cells (human), sequence (P16410 36-223): as the sequence (P16410 36-223) above

With “variant CD80 IgV-Fc E35D/A71D (SEQ ID NO: 194) (Fc fusion)” the MFI at 22.2 nM (PD-L1 (human) [1]) was 13800 MFI.
In the case of “CD80 E35D/D46V/M47L/V68M/L85Q/E88D IgV-Fc, delta linker (Fc fusion)”, the IL2-luciferase reporter, fold increase in RLU over WT CD80-IgV-Fc at 5.0 nM (CD28 (human) [2]) is reported as 2.77 fold and the IL2-luciferase reporter, fold increase in RLU over WT CD80-IgV-Fc at 5.0 nM (PD-L1 (human) [3]) is reported as 2.77 fold.
“variant CD80 IgV-Fc D46V/M47L/L85Q (Fc fusion)” showed an MFI at 33.3 nM (PD-L1 (human) [4]) of 5980 MFI, an MFI at 33.3 nM (human CTLA-4 (human) [5]) of 40200 MFI and an MFI at 33.3 nM (CD28 (human) [6]) of 567 MFI. The Fold change to WT CD80 (PD-L1 (human) [7]) was 46.7 fold and the Fold change to WT CD80 (human CTLA-4 (human) [8]) was 1 fold.
“variant CD80 IgV-Fc E35D/T41S/N48T (Fc fusion)” gave a Ratio of PDL1:CD28 [9] of 30, a Fold change to WT CD80 [10] of 15.8 fold and a Fold change to WT CD80 [11] of 31.2 fold. The Fold change to WT CD80 [12] was 1.1 fold, the MFI at 33.3 nM [13] was 30300 MFI and the MFI at 33.3 nM [14] was 2190 MFI. It also gave an MFI at 33.3 nM [15] of 72.4 MFI.
Work on WT CD80 IgV-Fc (inert) (Fc fusion) yielded a Jurkat/IL2 reporter RLU at 50 nM, CHO/OKT3/PD-L1 aAPC (CD28 (human) [16]) of 483 RLU, a Jurkat/IL2 reporter RLU at 50 nM, CHO/OKT3 aAPC without PD-L1 (CD28 (human) [16]) of 479 RLU and a Jurkat/IL2 reporter RLU at 50 nM, CHO/OKT3/PD-L1 aAPC (PD-L1 (human) [17]) of 483 RLU. It also gave a Jurkat/IL2 reporter RLU at 50 nM, K562/OKT3/PD-L1 aAPC (CD28 (human) [18]) of 566 RLU, a Jurkat/IL2 reporter RLU at 50 nM, K562/OKT3/PD-L1 aAPC (PD-L1 (human) [19]) of 566 RLU and a Jurkat/IL2 reporter RLU at 50 nM, K562/OKT3/PD-L1 aAPC (CD28 (human) [20]) of 206 RLU. The Jurkat/IL2 reporter RLU at 50 nM, K562/OKT3/PD-L1 aAPC (PD-L1 (human) [21]) was 206 RLU, the IL-2 release, primary T cells + K562/OKT3/PD-L1, 100 nM (CD28 (human) [22]) was 52 and the IL-2 release, primary T cells + K562/OKT3/PD-L1, 100 nM (PD-L1 (human) [23]) was 52. For the same substance, the MFI at 66.6 nM (CD28 (human) [24]) was 1620 MFI, the MFI at 22.2 nM (PD-L1 (human) [1]) was 1770 MFI and the MFI at 66.6 nM (human CTLA-4 (human) [25]) was 20700 MFI.
WT CD80 ECD-Fc (Fc fusion) gave an MFI at 33.3 nM (CD28 (human) [26]) of 31 MFI, an MFI at 33.3 nM (CD28 (human) [26]; record 2) of 30 MFI and an MFI at 33.3 nM (CD28 (human) [27]) of 46 MFI. For the same substance, the MFI at 33.3 nM (PD-L1 (human) [28]) was 52 MFI, the MFI at 33.3 nM (PD-L1 (human) [29]) was 58 MFI and the MFI at 66.6 nM (CD28 (human) [30]) was 24800.
Fc only gave an MFI at 66.6 nM (CD28 (human) [31]) of 2590, an MFI at 22.2 nM (PD-L1 (human) [32]) of 4740 and an MFI at 66.6 nM (human CTLA-4 (human) [33]) of 5960.
Work on “variant CD80 IgV-Fc (inert) H18Y/A26Q/E35D/M47T/V68M/A71G/D90G (Fc fusion)” yielded an IL2-luciferase reporter, fold increase in RLU over WT CD80-IgV-Fc at 5.0 nM (CD28 (human) [34]) of 5.8 fold, an IL2-luciferase reporter, fold increase in RLU over WT CD80-IgV-Fc at 5.0 nM (PD-L1 (human) [35]) of 5.8 fold and an MFI at 33.3 nM (CD28 (human) [26]) of 6730 MFI. The MFI at 33.3 nM (human CTLA-4 (human) [36]) was 16700 MFI, the MFI at 33.3 nM (PD-L1 (human) [37]) was 24400 MFI and the Fold change to WT CD80 (human CTLA-4 (human) [38]) was 12 fold. For the same substance, the Fold change to WT CD80 (PD-L1 (human) [39]) was 148 fold and the Fold change to WT CD80 (CD28 (human) [40]) was 66 fold.
Human IgG1 Isotype Control (antibody) gave a Relative Luminescence (RLU), Jurkat/IL2 reporter assay, at 100000 pM (CD28 (human) [41]) of 965 RLU, an MFI at 66.7 nM (CD28 (human) [26]) of 73.2 and an MFI at 66.7 nM (human CTLA-4 (human) [36]) of 69.4. For the same substance, the MFI at 66.7 nM (PD-L1 (human) [37]) was 96.4.
